Experimental data published in patent publication US20100273865A1 (VERENIGING VOOR CHRISTELIJK HOGER ONDERWIJS …, published 2010).

Molecular target: T1, CREB (Homo sapiens (Human), UniProt P16220 1-327)
T1 construct: also called CREB1
Assay: co-immunoprecipitation from HEK293 cells, Western blot

T1 sequence (P16220 other isoform, or with tags, fused parts or gaps): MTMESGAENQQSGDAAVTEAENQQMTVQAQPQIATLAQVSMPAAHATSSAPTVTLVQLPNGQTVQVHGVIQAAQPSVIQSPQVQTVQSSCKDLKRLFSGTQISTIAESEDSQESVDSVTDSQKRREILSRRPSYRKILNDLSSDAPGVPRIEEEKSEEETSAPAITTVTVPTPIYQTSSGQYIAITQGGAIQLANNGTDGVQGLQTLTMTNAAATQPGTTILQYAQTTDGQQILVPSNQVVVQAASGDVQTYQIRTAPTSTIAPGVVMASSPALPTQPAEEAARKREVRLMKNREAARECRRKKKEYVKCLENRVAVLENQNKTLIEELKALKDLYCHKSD

binding result: no binding
B1: Flag-tagged dominant-negative NFIL3 (other)
chain: MDYKDDDDKHMASMTGGQQMGRDPDLEQRAEELARENEELEKEAEELEQELAELENKLIALGEENATLKAELLSLKLKFGLISSTVYAQEIQKLSNSTAVYFQDYQTSKAAVSSYVDEHEPAMVAGSCISVIKHSPQSSLSDVSEVSSVEHTQESPAQGGCRSPENKFPVIKQEPVELESFARESREERGAYSASIYQSYMGSSFSTYSHSPPLLQVHGSTSNSPRTSEADEGVVGKSSDGEDEQQVPKGPIHSPVELQRVHATVVKVPEVNPSALPHKLRIKAKAMQVKVEALDSEFEGMQKLSSPADALAKRHFDLEKHGASGTAHSSLPPFSVQVTNIQDWSLRSEHWHHKELGGKTQGTFKTGVVEVKDSGYKVSEAENLYLKQGVANLSAEVVSLKRFIATQPISASDSR
notes: Expressed in HEK293 cells from modified pcDNA3.1; Species of the NFIL3 portion is inferred from the rat cDNA named in the same paragraph; also called DN-NFIL3; dominant-negative NFIL3 protein
